Reference: publication PMC9951844 (2023)

Experiments:
SARS-CoV-2 wildtype RBD [1] = molecular target: T1, SARS-CoV-2 wildtype RBD (SARS-CoV-2, UniProt P0DTC2 332-527); experiment: BLI
SARS-CoV-2 wildtype RBD [2] = molecular target: T1, SARS-CoV-2 wildtype RBD; experiment: BLI; remark: listed apart in the source

B1: YB9-258 IgG (antibody, V domains shown)
VH: EVQLVESGGGLIQPGGSLRLSCAASGLTVSSNYMHWVRQAPGKGLEWVSVLYAGGSAFYADSVKGRFTISRNNSKNTLYLQMNSLRAEDTAIYYCARGLGDYLDSWGQGTLVTVSS
VL: DIQMTQSPSSVSASVGDRVTITCRASQGIGSWLAWYQQKPGKAPQLLIYAASTLQSGVPPRFSGSGSGTDFTLTITSLQPEDFASYYCQQANSVLALTFGGGTKVEIK
Q: What does the source list for B1?
A: koff (SARS-CoV-2 wildtype RBD [1]): 7.7e-05 s⁻¹; Kd (SARS-CoV-2 wildtype RBD [2]): 0.63 nM

B2: YB13-292 IgG (antibody, V domains shown)
VH: EVQLVESGGGLVKPGGSLRLSCAASGFSFITYNMNWVRQAPGKGLEWVSSISSNILSSTSYIYYADSVKGRFTISRDDAANSLFLQMNSLRVEDTAQYYCARTRSRSVRNCTSATCPVDAFDLWGQGTMVIVSS
VL: DIVLTQSPLSLPVTPGEPASISCRSSQSLLRSNGYNYLDWYLQKPGQSPHLLIYLGSNRASGVPDRFSGSGSGTDFTLKISRVEAEDVGVYYCMQALQTPYTFGQGTNLEIK
Q: Which koff (SARS-CoV-2 wildtype RBD [1]) does the source give for B2 here?
A: Its koff is 0.000197 s⁻¹.

Q: And the Kd (SARS-CoV-2 wildtype RBD [2])?
A: Its Kd is 0.39 nM.
